Common to all, as to assay: SPR Biacore, biotinylated receptor on SA sensor, pH 7.4, 15 C
In general terms: In SPR one partner is held on a chip, and binding of the other changes the refractive index at the surface.

In one assay the target is T1, CTLA4 Fc bIgG1aWin (canine; bovine, UniProt Q9XSI1 36-161, limits assumed).
T1 construct: No linker
T1 sequence: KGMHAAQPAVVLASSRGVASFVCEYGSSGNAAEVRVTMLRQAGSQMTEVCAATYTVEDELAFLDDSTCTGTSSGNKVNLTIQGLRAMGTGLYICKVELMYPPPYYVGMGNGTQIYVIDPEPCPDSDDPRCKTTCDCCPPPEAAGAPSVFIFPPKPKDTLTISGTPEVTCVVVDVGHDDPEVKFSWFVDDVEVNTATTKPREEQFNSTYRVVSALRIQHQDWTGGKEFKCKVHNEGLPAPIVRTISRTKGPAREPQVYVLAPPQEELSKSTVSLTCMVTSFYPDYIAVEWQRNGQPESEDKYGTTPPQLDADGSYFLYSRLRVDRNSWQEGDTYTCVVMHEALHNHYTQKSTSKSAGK
Here is the method: (§1) A Biacore SPR binding assay was designed to test the affinity of bovine IgG subclasses to bFcgR1, bFcgR2 and bFcgR3. All reported KD's were measured by Biacore (Cytiva, Marlborough, MA, USA) using series S SA sensor. Biotinylated-bovine FcgR1, R2 and R3 were captured on the sensor surface using a modified SA capture method to reach the desired surface density. 10 mM HEPES, 150 mM NaCl, 3 mM EDTA, 0.05% v/v surfactant P20, pH7.4 buffer was used as the running and titration buffer. Various concentrations of bovine CTLA4-Fc fusions or mAbs were titrated and flowed over the receptor surface and affinities were determined using Biacore T200 Evaluation software (Cytiva, Marlborough, MA, USA) with 1:1 binding model. The method of double referencing has been applied where the reference flow cell was subtracted from the flow cell containing immobilized receptors and blank runs containing buffer only were subtracted out from all runs. Flow cells were regenerated using 10 mM Glycine pH1.5. Runs were performed at 15° C.
(§2) The ability to knock out binding to bovine Fc gamma receptors was evaluated by comparing SPR Biacore bFcgR affinity of bIgG1a and bIgG1b wildtype Fc to the bIgG1a and bIgG1b mutations, described above. All mutations made to bIgG1 are identical for the a and b allotypes. Biacore methods for bFcgR1, R2, and R3 were performed as described in Example 1.

The next assay concerns the target T2, CTLA4 Fc bIgG1aWinSAS (canine; bovine, UniProt Q9XSI1 36-161, limits assumed).
T2 construct: No linker
T2 sequence: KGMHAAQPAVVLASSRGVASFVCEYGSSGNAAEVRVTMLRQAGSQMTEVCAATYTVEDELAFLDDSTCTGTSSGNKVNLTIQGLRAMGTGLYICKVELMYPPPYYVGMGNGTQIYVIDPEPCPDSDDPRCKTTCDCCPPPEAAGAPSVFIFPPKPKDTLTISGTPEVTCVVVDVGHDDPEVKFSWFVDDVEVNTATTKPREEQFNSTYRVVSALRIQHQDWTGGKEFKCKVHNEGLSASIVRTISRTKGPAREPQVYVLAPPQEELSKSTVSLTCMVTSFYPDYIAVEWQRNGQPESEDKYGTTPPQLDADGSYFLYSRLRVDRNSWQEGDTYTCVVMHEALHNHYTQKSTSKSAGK
Here is the method: as §1, §2

For a further assay, the target named is T3, CTLA4 Fc bIgG1aSAS (canine; bovine, UniProt Q9XSI1 36-161, limits assumed).
T3 construct: No linker
T3 sequence: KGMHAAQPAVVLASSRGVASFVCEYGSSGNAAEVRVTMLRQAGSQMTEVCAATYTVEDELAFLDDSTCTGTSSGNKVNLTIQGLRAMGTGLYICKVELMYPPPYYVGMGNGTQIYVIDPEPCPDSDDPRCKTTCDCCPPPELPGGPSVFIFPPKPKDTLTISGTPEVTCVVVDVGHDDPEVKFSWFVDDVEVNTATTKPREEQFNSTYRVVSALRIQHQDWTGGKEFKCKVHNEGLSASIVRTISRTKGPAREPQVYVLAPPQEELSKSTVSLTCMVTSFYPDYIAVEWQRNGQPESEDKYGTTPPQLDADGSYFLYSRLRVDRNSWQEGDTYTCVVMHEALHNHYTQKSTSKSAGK
Here is the method: as §1, §2

A further assay has as its target T4, CTLA4 Fc bIgG1aSAP (canine; bovine, UniProt Q9XSI1 36-161, limits assumed).
T4 construct: No linker
T4 sequence: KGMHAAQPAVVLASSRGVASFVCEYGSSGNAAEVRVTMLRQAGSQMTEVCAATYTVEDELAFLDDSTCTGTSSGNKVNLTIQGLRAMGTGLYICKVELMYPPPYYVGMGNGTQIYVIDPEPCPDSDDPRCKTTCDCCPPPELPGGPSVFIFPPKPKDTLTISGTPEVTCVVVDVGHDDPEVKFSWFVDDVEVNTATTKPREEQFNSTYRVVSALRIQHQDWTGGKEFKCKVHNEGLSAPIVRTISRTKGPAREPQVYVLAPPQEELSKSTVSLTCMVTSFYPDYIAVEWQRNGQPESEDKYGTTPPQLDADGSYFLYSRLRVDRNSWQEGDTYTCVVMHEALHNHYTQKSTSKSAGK
Here is the method:
as §1, §2

In another assay the target is T5, CTLA4 Fc bIgG1a (canine; bovine, UniProt Q9XSI1 36-161, limits assumed).
T5 construct: No linker; also called bIgG1a wildtype; CTLA4 Fc bIgG1a wildtype
T5 sequence: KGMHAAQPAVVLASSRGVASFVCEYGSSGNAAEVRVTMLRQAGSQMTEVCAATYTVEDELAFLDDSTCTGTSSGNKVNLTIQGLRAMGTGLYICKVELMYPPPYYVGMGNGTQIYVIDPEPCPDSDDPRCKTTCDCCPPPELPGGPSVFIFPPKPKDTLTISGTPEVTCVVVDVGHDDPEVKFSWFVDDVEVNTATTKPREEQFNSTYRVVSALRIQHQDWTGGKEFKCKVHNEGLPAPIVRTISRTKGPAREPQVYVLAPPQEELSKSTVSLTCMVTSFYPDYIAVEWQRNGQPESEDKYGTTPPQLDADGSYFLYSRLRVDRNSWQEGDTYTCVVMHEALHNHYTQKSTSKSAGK
Here is the method: as §1, §2

B1: recombinant bovine FcgR2 (receptor)
chain: KPDLPKAVVTIQPAWINVLREDHVTLTCQGTSFSAGNLTTWFHNGSSIHTQKQPSYSFRAGSNDSGSYRCQREQTSLSDPVHLDVISDWLLLQTPSLVFQEGEPIMLRCHSWRNQPLNKITFYQDRKSKIFSYQRTNFSIPRANLSHSGQYHCTAFIGKMLHSSQPVNITVQESSSSGPSSMTHHHHHHAGLNDIFEAQKIEWHE
modifications: biotin on the BAP tag (BirA)
notes: also called bFcgR2; bFcgRII
As to B1, the Kd (commonly the equilibrium constant for the complex coming apart) in the assay with CTLA4 Fc bIgG1aWin amounted to 2.79 nM; in the assay with CTLA4 Fc bIgG1a, 3.37 nM. Moreover, the binding result in the assay with CTLA4 Fc bIgG1aWinSAS, with CTLA4 Fc bIgG1aSAS and in the assay with CTLA4 Fc bIgG1aSAP was “no binding” throughout.

B2: recombinant bovine FcgR3 (receptor)
chain: DTQTADPSKAVVLLDPQWNHVLTNDRVTLKCQGDYPVEDNSTKWWHNGTLISSQTPSYFIADVKVQDSGEYKCQTGLSAPSDPVKLEVHVGWLLLQVAQRVVNVGKPIRLKCHSWKKTPVAKVQYFRNGRGKKYSHGNSDFHIPEAKLEHSGSYFCRGIIGSKNESSESVQITVQAPETLQTVSSFFLPWHQHHHHHHAGLNDIFEAQKIEWHE
modifications: biotin on the BAP tag (BirA)
notes: also called bFcgR3; bFcgRIII
Regarding B2, the binding result in the assay with CTLA4 Fc bIgG1aWin, in the assay with CTLA4 Fc bIgG1aWinSAS, in the assay with CTLA4 Fc bIgG1aSAS and with CTLA4 Fc bIgG1aSAP was “no binding” throughout. Further, the Kd in the assay with CTLA4 Fc bIgG1a was found to be 14.3 nM.
